From publication PMC11695638 come the findings set out here.

The target in assay [1] is fibrin (immobilised human plasma fibrinogen cross-linked on the chip with thrombin and coagulation factor XIII) (human) (UniProt P02671). The assay is described as follows: SPR; Biacore T200, 25°C, HBS-EP+; fibrinogen amine-coupled to CM5 (aim 12,000 RU) and cross-linked with thrombin and factor XIII; tenecteplase injected at 2, 3 and 4 μg/mL, 5 μL/min, 120 s contact and 120 s dissociation; sensorgram comparison against a corridor (average ± 3 SD, normalised) of three Metalyse lots gives a similarity score. For orientation: In SPR one partner is held on a chip, and binding of the other changes the refractive index at the surface.
Chain of UniProt P02671 (P02671 36-866, chain 1 of 3): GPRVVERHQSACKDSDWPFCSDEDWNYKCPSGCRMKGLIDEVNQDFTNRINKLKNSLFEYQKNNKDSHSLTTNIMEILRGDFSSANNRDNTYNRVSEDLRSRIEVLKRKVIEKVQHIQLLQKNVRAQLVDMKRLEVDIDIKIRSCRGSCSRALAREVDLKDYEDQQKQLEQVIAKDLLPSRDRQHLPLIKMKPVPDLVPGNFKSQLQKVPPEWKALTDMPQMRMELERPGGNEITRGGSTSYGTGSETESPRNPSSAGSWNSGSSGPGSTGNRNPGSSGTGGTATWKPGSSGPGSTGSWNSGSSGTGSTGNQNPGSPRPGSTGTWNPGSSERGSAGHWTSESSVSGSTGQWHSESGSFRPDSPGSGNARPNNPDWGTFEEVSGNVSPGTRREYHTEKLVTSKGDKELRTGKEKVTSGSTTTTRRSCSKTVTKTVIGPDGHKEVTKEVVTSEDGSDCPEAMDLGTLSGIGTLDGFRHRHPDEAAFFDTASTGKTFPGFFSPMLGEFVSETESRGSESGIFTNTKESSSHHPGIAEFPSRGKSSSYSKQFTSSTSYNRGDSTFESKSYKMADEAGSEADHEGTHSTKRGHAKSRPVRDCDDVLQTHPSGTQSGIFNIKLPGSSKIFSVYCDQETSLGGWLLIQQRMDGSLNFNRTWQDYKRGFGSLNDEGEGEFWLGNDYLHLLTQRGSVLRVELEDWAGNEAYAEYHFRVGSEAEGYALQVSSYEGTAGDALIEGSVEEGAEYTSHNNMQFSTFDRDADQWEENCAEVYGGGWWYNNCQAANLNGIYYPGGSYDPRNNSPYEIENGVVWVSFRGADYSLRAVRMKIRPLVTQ
Chain of UniProt P02671 (P02675 45-491, chain 2 of 3, further chain): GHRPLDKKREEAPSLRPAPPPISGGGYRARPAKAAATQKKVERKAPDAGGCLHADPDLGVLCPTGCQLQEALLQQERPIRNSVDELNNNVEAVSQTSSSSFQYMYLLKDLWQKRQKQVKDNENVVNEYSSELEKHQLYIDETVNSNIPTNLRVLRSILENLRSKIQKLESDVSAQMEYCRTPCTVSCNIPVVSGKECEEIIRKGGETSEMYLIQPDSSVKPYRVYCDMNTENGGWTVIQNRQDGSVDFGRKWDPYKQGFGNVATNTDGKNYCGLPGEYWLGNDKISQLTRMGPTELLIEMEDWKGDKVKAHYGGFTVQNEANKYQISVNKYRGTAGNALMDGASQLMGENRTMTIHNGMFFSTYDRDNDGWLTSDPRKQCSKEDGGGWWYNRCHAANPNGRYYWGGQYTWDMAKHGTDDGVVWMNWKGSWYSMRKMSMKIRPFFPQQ
Chain of UniProt P02671 (P02679 27-453, chain 3 of 3, further chain): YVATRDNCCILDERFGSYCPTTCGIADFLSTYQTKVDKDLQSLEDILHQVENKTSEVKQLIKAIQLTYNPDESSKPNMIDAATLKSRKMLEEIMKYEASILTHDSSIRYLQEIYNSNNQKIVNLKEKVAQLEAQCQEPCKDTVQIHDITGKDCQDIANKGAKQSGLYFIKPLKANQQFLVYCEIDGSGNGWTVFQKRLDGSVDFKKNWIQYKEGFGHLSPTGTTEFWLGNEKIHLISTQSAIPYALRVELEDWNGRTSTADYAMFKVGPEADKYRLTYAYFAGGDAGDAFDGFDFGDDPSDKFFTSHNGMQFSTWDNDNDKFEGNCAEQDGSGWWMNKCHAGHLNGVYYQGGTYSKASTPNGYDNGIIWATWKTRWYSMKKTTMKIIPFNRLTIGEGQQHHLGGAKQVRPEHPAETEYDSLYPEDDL

For assay [2], the target named is mannose receptor C, type 1 (MRC1) (UniProt P22897). Briefly: SPR; Biacore T200, 25°C, HBS-EP+ with 8 mM CaCl2; LRP-1 (approx. 1300 RU), ASGR1 (approx. 1500 RU) and MRC1 (approx. 13,000 RU) amine-coupled to parallel flow cells of CM5; Metalyse (88, 53, 32 μg/mL) and Mingfule (53, 32, 19 μg/mL) injected at 30 μL/min for 240 s, 150 s dissociation; sensorgram comparison gives a similarity score.
Chain of UniProt P22897 (P22897 19-1389): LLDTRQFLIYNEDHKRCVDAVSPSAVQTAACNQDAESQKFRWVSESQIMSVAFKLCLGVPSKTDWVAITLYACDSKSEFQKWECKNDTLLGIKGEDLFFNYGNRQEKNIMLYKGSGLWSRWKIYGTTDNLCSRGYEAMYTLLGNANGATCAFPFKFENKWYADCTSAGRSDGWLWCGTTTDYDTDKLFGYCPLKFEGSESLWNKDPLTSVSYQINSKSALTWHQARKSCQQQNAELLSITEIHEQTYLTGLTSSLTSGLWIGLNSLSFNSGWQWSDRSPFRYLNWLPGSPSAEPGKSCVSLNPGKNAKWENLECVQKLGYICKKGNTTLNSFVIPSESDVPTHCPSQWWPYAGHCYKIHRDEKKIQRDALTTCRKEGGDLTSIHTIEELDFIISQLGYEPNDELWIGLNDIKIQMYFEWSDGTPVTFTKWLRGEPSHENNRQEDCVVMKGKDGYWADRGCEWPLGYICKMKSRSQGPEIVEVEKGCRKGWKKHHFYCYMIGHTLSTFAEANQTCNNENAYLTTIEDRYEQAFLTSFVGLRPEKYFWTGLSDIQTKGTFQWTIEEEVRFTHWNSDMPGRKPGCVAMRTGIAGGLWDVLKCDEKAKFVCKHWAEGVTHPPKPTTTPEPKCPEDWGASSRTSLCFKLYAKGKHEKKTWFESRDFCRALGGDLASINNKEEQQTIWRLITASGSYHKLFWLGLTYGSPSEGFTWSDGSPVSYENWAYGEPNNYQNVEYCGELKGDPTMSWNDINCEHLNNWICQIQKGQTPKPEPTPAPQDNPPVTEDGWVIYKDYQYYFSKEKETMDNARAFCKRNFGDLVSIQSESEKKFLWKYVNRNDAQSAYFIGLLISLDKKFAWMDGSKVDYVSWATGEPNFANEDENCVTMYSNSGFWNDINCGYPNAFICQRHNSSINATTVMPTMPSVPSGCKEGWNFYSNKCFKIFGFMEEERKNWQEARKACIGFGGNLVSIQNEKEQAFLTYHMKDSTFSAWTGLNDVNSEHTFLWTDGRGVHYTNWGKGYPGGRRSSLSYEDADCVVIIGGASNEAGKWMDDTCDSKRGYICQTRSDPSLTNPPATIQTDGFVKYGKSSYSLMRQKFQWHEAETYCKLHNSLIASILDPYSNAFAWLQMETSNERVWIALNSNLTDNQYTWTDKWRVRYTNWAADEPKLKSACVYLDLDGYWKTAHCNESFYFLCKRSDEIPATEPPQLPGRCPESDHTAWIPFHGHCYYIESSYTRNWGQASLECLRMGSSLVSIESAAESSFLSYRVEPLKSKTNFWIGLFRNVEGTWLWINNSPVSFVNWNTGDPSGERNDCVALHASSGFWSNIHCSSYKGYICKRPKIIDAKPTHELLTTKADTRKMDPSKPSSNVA

For assay [3], the target named is recombinant low-density lipoprotein receptor-related protein 1 (LRP-1) Cluster IV. The assay is described as above.
Assay [4] has as its target asialoglycoprotein receptor 1 (ASGR1, P01) (UniProt P07306). The assay is described as above.

Values joined by “and” are separate entries in the source; they are usually repeats but may differ in a detail not shown here. Equal values may be shown once.

For “tenecteplase copy Mingfule 16 mg/vial (CSPC Recomgen Pharmaceutical, Guangzhou, Co., Ltd.) (enzyme)”, the similarity score to Metalyse (SPR sensorgram comparison) was 53% and 37% and 46% in assay [1]; 8% and 9% and 10% in assay [2]; 30% and 17% and 25% in assay [3]; 5% and 6% and 9% in assay [4].
